Test results as given in patent US20210301025A1 (published 2021).
Positions count from the first letter of the chain named. Names may count otherwise.

B1: P54AR4-83v2 K40C, NEM conjugate (designed binder, not shown: small tags and cut ends)
chain: LPAPKNLVVSEVTEDSARLSWDDPWAFYESFLIQYQESECVGEAIVLTVPGSERSYDLTGLKPGTEYTVSIYGVHNVYKDTNMRGLPLSAIFTT
modifications: N-ethyl maleimide (NEM) on Cys 40
B2: P54AR4-83v2 S70C, NEM conjugate (designed binder, not shown: small tags and cut ends)
chain: B1 chain with C40K, S70C
modifications: N-ethyl maleimide (NEM) on Cys 70
notes: also called 570C
B3: P54AR4-83v2 S38C, NEM conjugate (designed binder, not shown: small tags and cut ends)
chain: B1 chain with S38C, C40K
modifications: N-ethyl maleimide (NEM) on Cys 38
B4: P54AR4-83v2 S55C, NEM conjugate (designed binder, not shown: small tags and cut ends)
chain: B1 chain with C40K, S55C
modifications: N-ethyl maleimide (NEM) on Cys 55
B5: P54AR4-83v2 N76C, NEM conjugate (designed binder, not shown: small tags and cut ends)
chain: B1 chain with C40K, N76C
modifications: N-ethyl maleimide (NEM) on Cys 76
B6: P54AR4-83v2 K62C, NEM conjugate (designed binder, not shown: small tags and cut ends)
chain: B1 chain with C40K, K62C
modifications: N-ethyl maleimide (NEM) on Cys 62
B7: P54AR4-83v2 R84C, NEM conjugate (designed binder, not shown: small tags and cut ends)
chain: B1 chain with C40K, R84C
modifications: N-ethyl maleimide (NEM) on Cys 84
B8: P54AR4-83v2 L88C, NEM conjugate (designed binder, not shown: small tags and cut ends)
chain: B1 chain with C40K, L88C
modifications: N-ethyl maleimide (NEM) on Cys 88
B9: P54AR4-83v2 R18C, NEM conjugate (designed binder, not shown: small tags and cut ends)
chain: B1 chain with R18C, C40K
modifications: N-ethyl maleimide (NEM) on Cys 18
B10: P54AR4-83v2 S10C, NEM conjugate (designed binder, not shown: small tags and cut ends)
chain: B1 chain with S10C, C40K
modifications: N-ethyl maleimide (NEM) on Cys 10
B11: P54AR4-83v2 S16C, NEM conjugate (designed binder, not shown: small tags and cut ends)
chain: B1 chain with S16C, C40K
modifications: N-ethyl maleimide (NEM) on Cys 16
B12: P54AR4-83v2 P24C, NEM conjugate (designed binder, not shown: small tags and cut ends)
chain: B1 chain with P24C, C40K
modifications: N-ethyl maleimide (NEM) on Cys 24
B13: P54AR4-83v2 S52C, NEM conjugate (designed binder, not shown: small tags and cut ends)
chain: B1 chain with C40K, S52C
modifications: N-ethyl maleimide (NEM) on Cys 52
B14: P54AR4-83v2 L47C, NEM conjugate (designed binder, not shown: small tags and cut ends)
chain: B1 chain with C40K, L47C
modifications: N-ethyl maleimide (NEM) on Cys 47
B15: P54AR4-83v2 P50C, NEM conjugate (designed binder, not shown: small tags and cut ends)
chain: B1 chain with C40K, P50C
modifications: N-ethyl maleimide (NEM) on Cys 50
B16: P54AR4-83v2 L32C, NEM conjugate (designed binder, not shown: small tags and cut ends)
chain: B1 chain with L32C, C40K
modifications: N-ethyl maleimide (NEM) on Cys 32
B17: P54AR4-83v2 P63C, NEM conjugate (designed binder, not shown: small tags and cut ends)
chain: B1 chain with C40K, P63C
modifications: N-ethyl maleimide (NEM) on Cys 63
B18: P54AR4-83v2 P2C, NEM conjugate (designed binder, not shown: small tags and cut ends)
chain: B1 chain with P2C, C40K
modifications: N-ethyl maleimide (NEM) on Cys 2
B19: P54AR4-83v2 P4C, NEM conjugate (designed binder, not shown: small tags and cut ends)
chain: B1 chain with P4C, C40K
modifications: N-ethyl maleimide (NEM) on Cys 4
B20: P54AR4-83v2 T13C, NEM conjugate (designed binder, not shown: small tags and cut ends)
chain: B1 chain with T13C, C40K
modifications: N-ethyl maleimide (NEM) on Cys 13
B21: P54AR4-83v2 S20C, NEM conjugate (designed binder, not shown: small tags and cut ends)
chain: B1 chain with S20C, C40K
modifications: N-ethyl maleimide (NEM) on Cys 20
notes: also called 520C
B22: P54AR4-83v2 R54C, NEM conjugate (designed binder, not shown: small tags and cut ends)
chain: B1 chain with C40K, R54C
modifications: N-ethyl maleimide (NEM) on Cys 54
B23: P54AR4-83v2 N6C, NEM conjugate (designed binder, not shown: small tags and cut ends)
chain: B1 chain with N6C, C40K
modifications: N-ethyl maleimide (NEM) on Cys 6
B24: P54AR4-83v2 N82C, NEM conjugate (designed binder, not shown: small tags and cut ends)
chain: B1 chain with C40K, N82C
modifications: N-ethyl maleimide (NEM) on Cys 82
B25: P54AR4-83v2 L7C, NEM conjugate (designed binder, not shown: small tags and cut ends)
chain: B1 chain with L7C, C40K
modifications: N-ethyl maleimide (NEM) on Cys 7
B26: P54AR4-83v2 Q34C, NEM conjugate (designed binder, not shown: small tags and cut ends)
chain: B1 chain with Q34C, C40K
modifications: N-ethyl maleimide (NEM) on Cys 34
B27: P54AR4-83v2 T59C, NEM conjugate (designed binder, not shown: small tags and cut ends)
chain: B1 chain with C40K, T59C
modifications: N-ethyl maleimide (NEM) on Cys 59
B28: P54AR4-83v2 P87C, NEM conjugate (designed binder, not shown: small tags and cut ends)
chain: B1 chain with C40K, P87C
modifications: N-ethyl maleimide (NEM) on Cys 87
B29: P54AR4-83v2 K79C, NEM conjugate (designed binder, not shown: small tags and cut ends)
chain: B1 chain with C40K, K79C
modifications: N-ethyl maleimide (NEM) on Cys 79
B30: P54AR4-83v2 T48C, NEM conjugate (designed binder, not shown: small tags and cut ends)
chain: B1 chain with C40K, T48C
modifications: N-ethyl maleimide (NEM) on Cys 48
B31: P54AR4-83v2 S30C, NEM conjugate (designed binder, not shown: small tags and cut ends)
chain: B1 chain with S30C, C40K
modifications: N-ethyl maleimide (NEM) on Cys 30
notes: also called 530C
B32: P54AR4-83v2 L86C, NEM conjugate (designed binder, not shown: small tags and cut ends)
chain: B1 chain with C40K, L86C
modifications: N-ethyl maleimide (NEM) on Cys 86
B33: P54AR4-83v2 S89C, NEM conjugate (designed binder, not shown: small tags and cut ends)
chain: B1 chain with C40K, S89C
modifications: N-ethyl maleimide (NEM) on Cys 89
B34: P54AR4-83v2 M83C, NEM conjugate (designed binder, not shown: small tags and cut ends)
chain: B1 chain with C40K, M83C
modifications: N-ethyl maleimide (NEM) on Cys 83

These binders were tested against T1, EGFR (form used in the assay not stated) (human, UniProt P00533 25-645, limits assumed) (assay: ELISA, NEM conjugate, 100 nM).

| Binder | binding relative to P54AR4-83v2 parent [ratio] |
| --- | --- |
| B1 | 0.95 |
| B2 | 1.01 |
| B3 | 0.93 |
| B4 | 0 |
| B5 | 0.97 |
| B6 | 0.73 |
| B7 | 1.04 |
| B8 | 1.03 |
| B9 | 1.05 |
| B10 | 1.07 |
| B11 | 1.05 |
| B12 | 0.85 |
| B13 | 1.03 |
| B14 | 1.02 |
| B15 | 1.05 |
| B16 | 1.01 |
| B17 | 1.02 |

| Binder | binding relative to P54AR4-83v2 parent [ratio] |
| --- | --- |
| B18 | 0 |
| B19 | 0.02 |
| B20 | 1.04 |
| B21 | 1.05 |
| B22 | 1.01 |
| B23 | 1.01 |
| B24 | 0.97 |
| B25 | 1 |
| B26 | 1.03 |
| B27 | 1.04 |
| B28 | 0.93 |
| B29 | 0.99 |
| B30 | 1 |
| B31 | 1.02 |
| B32 | 0.96 |
| B33 | 1.02 |
| B34 | 0.04 |

What follows are binders tested against T1, EGFR (form used in the assay not stated) (assay: ELISA, NEM conjugate, 500 nM).

| Binder | binding relative to P54AR4-83v2 parent [ratio] |
| --- | --- |
| B1 | 0.86 |
| B2 | 0.93 |
| B3 | 0.82 |
| B4 | 0.11 |
| B5 | 0.91 |
| B6 | 0.61 |
| B7 | 0.98 |
| B8 | 0.97 |
| B9 | 0.94 |
| B10 | 0.96 |
| B11 | 0.63 |
| B12 | 0.83 |
| B13 | 0.93 |
| B14 | 0.91 |
| B15 | 0.97 |
| B16 | 0.91 |
| B17 | 0.92 |

| Binder | binding relative to P54AR4-83v2 parent [ratio] |
| --- | --- |
| B18 | 0.01 |
| B19 | 0.12 |
| B20 | 0.9 |
| B21 | 0.91 |
| B22 | 0.93 |
| B23 | 0.89 |
| B24 | 0.96 |
| B25 | 0.9 |
| B26 | 0.94 |
| B27 | 0.93 |
| B28 | 0.91 |
| B29 | 0.93 |
| B30 | 0.93 |
| B31 | 0.9 |
| B32 | 0.92 |
| B33 | 1.04 |
| B34 | 0.24 |

Each binder was assayed against T1, EGFR (form used in the assay not stated) (assay: ELISA, NEM conjugate, 10 nM).

| Binder | binding relative to P54AR4-83v2 parent [ratio] |
| --- | --- |
| B1 | 0.88 |
| B2 | 0.86 |
| B3 | 0.8 |
| B4 | 0 |
| B5 | 0.75 |
| B6 | 0.64 |
| B7 | 0.91 |
| B8 | 0.95 |
| B9 | 0.86 |
| B10 | 0.83 |
| B11 | 0.88 |
| B12 | 0.45 |
| B13 | 0.78 |
| B14 | 0.92 |
| B15 | 0.91 |
| B16 | 0.87 |
| B17 | 0.95 |

| Binder | binding relative to P54AR4-83v2 parent [ratio] |
| --- | --- |
| B18 | 0 |
| B19 | 0.02 |
| B20 | 0.87 |
| B21 | 0.81 |
| B22 | 0.89 |
| B23 | 0.76 |
| B24 | 0.56 |
| B25 | 0.35 |
| B26 | 0.89 |
| B27 | 0.83 |
| B28 | 0.73 |
| B29 | 0.9 |
| B30 | 0.88 |
| B31 | 0.9 |
| B32 | 0.77 |
| B33 | 0.97 |
| B34 | 0.07 |
